14 molecules from patent US20190000964A1 can be followed below.

B1: YSSYR (peptide)
peptide: YSSYR
modifications: not checked
B2: SSEYR (peptide)
peptide: SSEYR
modifications: not checked
B3: TTSYR (peptide)
peptide: TTSYR
modifications: not checked
B4: NTSYR (peptide)
peptide: NTSYR
modifications: not checked
B5: TTSYT (peptide)
peptide: TTSYT
modifications: not checked
B6: TISYR (peptide)
peptide: TISYR
modifications: not checked
B7: NSNYS (peptide)
peptide: NSNYS
modifications: not checked
B8: NSSYR (peptide)
peptide: NSSYR
modifications: not checked
B9: TSNYS (peptide)
peptide: TSNYS
modifications: not checked
B10: NNRYR (peptide)
peptide: NNRYR
modifications: not checked
B11: NSEYR (peptide)
peptide: NSEYR
modifications: not checked
B12: NSSYT (peptide)
peptide: NSSYT
modifications: not checked
B13: SSTYR (peptide)
peptide: SSTYR
modifications: not checked
B14: DAPTA (Dala1-peptide T-amide) (peptide)
peptide: ASTTTNYT
modifications: not checked

The target of one assay is human CCR5 receptor (hCCR5) (human), P51681. Kind of assay: inhibition of gp120/sCD4 complex binding to CCR5-expressing Cf2Th cells by competing peptide.
Chain of human CCR5 receptor (hCCR5) (human), P51681 (P51681 whole entry): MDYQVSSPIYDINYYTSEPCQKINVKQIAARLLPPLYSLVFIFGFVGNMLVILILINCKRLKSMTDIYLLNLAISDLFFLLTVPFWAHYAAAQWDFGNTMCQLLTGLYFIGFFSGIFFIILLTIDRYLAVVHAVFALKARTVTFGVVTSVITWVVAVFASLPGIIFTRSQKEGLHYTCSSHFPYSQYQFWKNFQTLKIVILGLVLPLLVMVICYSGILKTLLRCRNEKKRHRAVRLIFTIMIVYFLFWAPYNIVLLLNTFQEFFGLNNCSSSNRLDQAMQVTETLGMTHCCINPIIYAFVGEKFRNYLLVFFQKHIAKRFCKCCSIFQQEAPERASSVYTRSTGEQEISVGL
B1 showed an EC50 of 0.6 nM.

For B2, the EC50 was found to be 0.3 nM.

Take B3: the EC50 is 0.1 nM.

The molecule B4 displayed an EC50 of 0.1 nM. In other words, the sub-nanomolar range.

As for B5, the EC50 came out at 0.05 nM.

Take B6: the EC50 came to 0.4 nM.

B7 yielded an EC50 of 0.5 nM.

Turning to B8, the EC50 came to 0.04 nM.

B9 showed an EC50 of 0.2 nM.

In turn, B10 had an EC50 of 0.2 nM.

The molecule B11 displayed an EC50 of 0.08 nM.

As for B12, the EC50 was 0.2 nM.

In turn, B13 had an EC50 of 0.1 nM.

The target is the same in another assay. Kind of assay: inhibition of gp120CM235/sCD4 binding to GHOST CD4.CCR5 cells (FIG. 4C).
Consider B14, for which the IC50 amounted to 0.051 nM.

The target is the same in another assay. In words: inhibition of gp120BaL/sCD4 binding to Cf2Th/synR5 cells (FIG. 4A).
With B14, the IC50 worked out at 0.055 nM.

The target is the same in a further assay. In words: inhibition of gp120CM235/sCD4 binding to Cf2Th/synR5 cells (FIG. 4B).
Regarding B14, the IC50 worked out at 0.32 nM and the percent inhibition of specific binding was above 80%.

As a reminder, the EC50 is the concentration giving half of the maximal effect. A lower EC50 goes with greater potency. As usually defined, the IC50 is the concentration at which inhibition is half-maximal. Low values mean greater potency in that assay, high ones weaker potency in that assay.
